Measurements from article PMC3485151, “A Δ38 Deletion Variant of Human Transketolase as a Model of Transketolase-Like Protein 1 Exhibits No Enzymatic Activity” (PLoS ONE, 2012).

Target: the molecule itself
Assay: SEC; analytical gel filtration, Superdex 200 10/30, 200 µL of 4 mg/mL protein in 50 mM glycyl-glycine pH 7.6, 500 mM NaCl, 6°C; apparent masses estimated from protein standards; semiquantitative

B1: human full-length transketolase (enzyme, UniProt P29401 1-623, looked up)
chain: MESYHKPDQQKLQALKDTANRLRISSIQATTAAGSGHPTSCCSAAEIMAVLFFHTMRYKSQDPRNPHNDRFVLSKGHAAPILYAVWAEAGFLAEAELLNLRKISSDLDGHPVPKQAFTDVATGSLGQGLGAACGMAYTGKYFDKASYRVYCLLGDGELSEGSVWEAMAFASIYKLDNLVAILDINRLGQSDPAPLQHQMDIYQKRCEAFGWHAIIVDGHSVEELCKAFGQAKHQPTAIIAKTFKGRGITGVEDKESWHGKPLPKNMAEQIIQEIYSQIQSKKKILATPPQEDAPSVDIANIRMPSLPSYKVGDKIATRKAYGQALAKLGHASDRIIALDGDTKNSTFSEIFKKEHPDRFIECYIAEQNMVSIAVGCATRNRTVPFCSTFAAFFTRAFDQIRMAAISESNINLCGSHCGVSIGEDGPSQMALEDLAMFRSVPTSTVFYPSDGVATEKAVELAANTKGICFIRTSRPENAIIYNNNEDFQVGQAKVVLKSKDDQVTVIGAGVTLHEALAAAELLKKEKINIRVLDPFTIKPLDRKLILDSARATKGRILTVEDHYYEGGIGEAVSSAVVGEPGITVTHLAVNRVPRSGKPAELLKMFGIDRDAIAQAVRGLITKA
notes: human transketolase (TKT, EC 2.2.1.1), full length, residues 1-623, expressed from a synthetic codon-optimized tkt gene in pET28a; Expressed and purified by the same protocol as TKTΔ38; also called TKT; full-length TKT; source: E. coli BL21*, purified (Ni-NTA, desalting column)
- stoichiometry N: 2
